Source: EP2182008A2

Columns and labels:
[1] = target: LFA-1 leucine zipper fusion protein (UniProt P20701); assay: ELISA, CAM/Ig on captured integrin
[2] = target: soluble human αd/CD18 leucine zipper heterodimer (human) (UniProt P05107); assay: ELISA, CAM/Ig on αd/CD18LZ captured with 212D

Row | fold above background [1] [fold] | fold increase in signal above background [2] [fold] | Binder
1 | 10 |  | ICAM-2/Ig (Fc fusion, part only; not given: Ig Fc portion, UniProt P13598 25-223, looked up, part only) chain, part: KVFEVHVRPKKLAVEPKGSLEVNCSTTCNQPEVGGLETSLDKILLDEQAQWKHYLVSNISHDTVLQCHFTCSGKQESMNSNVSVYQPPRQVILTLQPTLVAVGKSFTIECRVPTVEPLDSLTLFLFRGNETLHYETFGKAAPAPQEATATFNSTADREDGHRNFSCLAVLDLMSRGGNIFHKHSAPKMLEIYEPVSDSQ
2 |  | 5 | VCAM-1/IgG1 fusion protein (seven extracellular immunoglobulin-like domains) (Fc fusion, UniProt P19320 25-698, looked up, not shown: a dimerising Fc or GST) FKIETTPESRYLAQIGDSVSLTCSTTGCESPFFSWRTQIDSPLNGKVTNEGTTSTLTMNPVSFGNEHSYLCTATCESRKLEKGIQVEIYSFPKDPEIHLSGPLEAGKPITVKCSVADVYPFDRLEIDLLKGDHLMKSQEFLEDADRKSLETKSLEVTFTPVIEDIGKVLVCRAKLHIDEMDSVPTVRQAVKELQVYISPKNTVISVNPSTKLQEGGSVTMTCSSEGLPAPEIFWSKKLDNGNLQHLSGNATLTLIAMRMEDSGIYVCEGVNLIGKNRKEVELIVQEKPFTVEISPGPRIAAQIGDSVMLTCSVMGCESPSFSWRTQIDSPLSGKVRSEGTNSTLTLSPVSFENEHSYLCTVTCGHKKLEKGIQVELYSFPRDPEIEMSGGLVNGSSVTVSCKVPSVYPLDRLEIELLKGETILENIEFLEDTDMKSLENKSLEMTFIPTIEDTGKALVCQAKLHIDDMEFEPKQRQSTQTLYVNVAPRDTTVLVSPSSILEEGSSVNMTCLSQGFPAPKILWSRQLPNGELQPLSENATLTLISTKMEDSGVYLCEGINQAGRSRKEVELIIQVTPKDIKLTAFPSESVKEGDTVIISCTCGNVPETWIILKKKAETGDTVLKSIDGAYTIRKAQLKDAGVYECESKNKVGSQLRSLTLDVQGRENNKDYFSPE
